In US20200000897A1 (published 2020):

B1: HMDEFKRTQK (peptide)
peptide: HMDEFKRTQK
B2: RLLQHTPSAR (peptide)
peptide: RLLQHTPSAR

Molecular target: T1, HLA-A*03:01 (human)
T1 construct: MHC class I monomer first loaded with a UV-sensitive peptide that is cleaved by UV irradiation and exchanged for the test peptide; captured on streptavidin plates; also called peptide-receptive MHC molecules
Assay: UV-ligand exchange, anti-b2m ELISA; peptide exchange yield grade (>10% +, >20% ++, >50% +++, >75% ++++)
Summary of the method: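 HLA-A*03:01 complexes were formed by UV-induced exchange of a photocleavable peptide for the test peptide. Exchange yield was measured by ELISA: streptavidin capture of 100-fold diluted monomers, HRP-anti-β2m detection, TMB read at 450 nm, quantified against HLA-A*02:01 monomer standards (15–500 ng/ml) and graded by % yield.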

Binder	peptide exchange yield
B1	50 to 75%
B2	> 75%
